Patent publication US20200078441A1

Experiments:
[1] = biological target: T1, recombinant His-tagged AGO2 protein (human Argonaute 2, baculovirus-expressed) (human), Q9UKV8; test: TAT-26 peptide
[2] = biological target: T1, recombinant His-tagged AGO2 protein …
[3] = biological target: T1, recombinant His-tagged AGO2 protein …; test: TAT-11 peptide

T1 sequence (Q9UKV8 other isoform, or with tags, fused parts or gaps limits assumed): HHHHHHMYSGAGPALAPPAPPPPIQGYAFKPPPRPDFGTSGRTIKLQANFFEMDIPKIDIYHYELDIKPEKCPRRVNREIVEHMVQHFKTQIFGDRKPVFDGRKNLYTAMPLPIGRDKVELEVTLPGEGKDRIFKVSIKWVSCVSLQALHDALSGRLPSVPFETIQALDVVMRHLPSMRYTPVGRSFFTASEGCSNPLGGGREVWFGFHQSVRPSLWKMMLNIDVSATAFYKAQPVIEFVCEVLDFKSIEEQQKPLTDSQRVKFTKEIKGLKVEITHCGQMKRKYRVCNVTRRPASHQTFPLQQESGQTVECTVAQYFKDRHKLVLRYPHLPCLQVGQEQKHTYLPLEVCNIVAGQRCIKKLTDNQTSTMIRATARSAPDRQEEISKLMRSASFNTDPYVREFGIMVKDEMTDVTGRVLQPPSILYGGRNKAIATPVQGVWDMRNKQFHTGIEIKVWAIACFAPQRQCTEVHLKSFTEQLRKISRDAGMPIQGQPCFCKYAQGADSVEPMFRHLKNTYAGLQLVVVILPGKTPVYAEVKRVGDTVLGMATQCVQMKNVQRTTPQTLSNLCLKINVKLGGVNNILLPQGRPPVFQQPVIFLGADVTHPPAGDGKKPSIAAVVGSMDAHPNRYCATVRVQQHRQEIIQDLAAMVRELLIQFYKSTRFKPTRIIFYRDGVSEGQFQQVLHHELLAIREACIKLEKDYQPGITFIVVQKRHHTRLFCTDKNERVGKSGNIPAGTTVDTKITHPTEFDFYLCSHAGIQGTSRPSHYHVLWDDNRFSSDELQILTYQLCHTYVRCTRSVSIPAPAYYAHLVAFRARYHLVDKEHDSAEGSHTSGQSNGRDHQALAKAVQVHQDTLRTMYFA

| Binder | Kd [1] | koff [2] | kon [2] | Kd [3] |
| --- | --- | --- | --- | --- |
| HSLGGPLIATAFTNGGRKKRRQRRRPPQ (modifications not checked) [TAT-26 decoy peptide (MSI1 peptide 26 with HIV-1 Tat (48-60) cell-penetrating peptide)] | 4.63 µM | 0.00226 s⁻¹ | 488 M⁻¹ s⁻¹ |  |
| YQFPEFRVERTPLPSGRKKRRQRRRPPQ (modifications not checked) [TAT-11 decoy peptide (MSI1 peptide 11 with HIV-1 Tat (48-60) cell-penetrating peptide)] |  | 0.00274 s⁻¹ | 823 M⁻¹ s⁻¹ | 3.33 µM |
